This is an account of results in US10822618B2, “Method of using a transgenic mouse with alpha-one antitrypsin (ATT) deficiency to screen compounds” (University of Massachusetts, priority 2016, dated 2020).

A short description of assay [1]: Respiratory phenotype in response to intratracheal PPE. The note with it: intratracheal dose of 0.33 IU; FIG. 7. In kind it is in vivo, mice. The source says:
FIG. 7. Respiratory phenotype in response to a low and high dose of PPE.

The next assay addresses T1, neutrophil elastase (Homo sapiens, UniProt P08246).
T1 sequence (P08246 30-267): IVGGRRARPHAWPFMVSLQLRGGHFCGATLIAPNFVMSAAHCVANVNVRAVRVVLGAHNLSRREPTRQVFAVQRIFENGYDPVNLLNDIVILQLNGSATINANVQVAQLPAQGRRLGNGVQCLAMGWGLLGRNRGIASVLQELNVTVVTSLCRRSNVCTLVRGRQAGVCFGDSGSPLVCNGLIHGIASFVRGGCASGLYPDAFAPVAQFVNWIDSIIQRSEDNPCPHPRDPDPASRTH
To be noted: murine AAT protein, C57BL/6J; cited from earlier work.

A further assay concerns the target pancreatic elastase (Sus scrofa, UniProt P00772). The note with it: murine AAT protein, C57BL/6J; cited from earlier work.

pancreatic elastase, sequence (P00772 27-266): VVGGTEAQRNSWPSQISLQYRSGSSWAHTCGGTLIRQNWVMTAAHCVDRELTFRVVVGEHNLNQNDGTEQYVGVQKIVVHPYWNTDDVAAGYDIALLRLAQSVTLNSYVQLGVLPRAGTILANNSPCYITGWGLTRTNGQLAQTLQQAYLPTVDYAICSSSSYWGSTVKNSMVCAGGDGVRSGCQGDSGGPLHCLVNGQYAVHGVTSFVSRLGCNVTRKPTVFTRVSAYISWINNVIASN

With PPE: porcine pancreatic elastase, the respiratory phenotype result in assay [1] is “a stronger phenotype is induced”.

B1: AAT 1-1: murine α-1-antitrypsin protein corresponding to one of the Serpina1 genes (A-E) (protein, UniProt P07758 25-413, looked up)
Alpha-1-antitrypsin 1-1: EDVQETDTSQKDQSPASHEIATNLGDFAISLYRELVHQSNTSNIFFSPVSIATAFAMLSLGSKGDTHTQILEGLQFNLTQTSEADIHKSFQHLLQTLNRPDSELQLSTGNGLFVNNDLKLVEKFLEEAKNHYQAEVFSVNFAESEEAKKVINDFVEKGTQGKIAEAVKKLDQDTVFALANYILFKGKWKKPFDPENTEEAEFHVDESTTVKVPMMTLSGMLHVHHCSTLSSWVLLMDYAGNATAVFLLPDDGKMQHLEQTLSKELISKFLLNRRRRLAQIHFPRLSISGEYNLKTLMSPLGITRIFNNGADLSGITEENAPLKLSQAVHKAVLTIDETGTEAAAVTVLQMVPMSMPPILRFDHPFLFIIFEEHTQSPIFLGKVVDPTHK
As for B1, the “inhibition of neutrophil elastase” value in the assay with neutrophil elastase is “inhibit”. The “inhibition of pancreatic elastase” value in the assay with pancreatic elastase is “inhibit”.

B2: AAT 1-3: murine α-1-antitrypsin protein corresponding to one of the Serpina1 genes (A-E) (protein, UniProt Q00896 25-412, looked up)
Alpha-1-antitrypsin 1-3: EDVQETDTSQKDQSPASHEIATNLGDFAISLYRELVHQSNTSNIFFSPVSIATAFAMLSLGSKGDTHTQILEGLQFNLTQTSEADIHKSFQHLLQTLNRPDSELQLSTGNGLFVNNDLKLVEKFLEEAKNHYQAEVFSVNFAESEEAKKVINDFVEKGTQGKIVEAVKKLDQDTVFALANYILFKGKWKKPFDPENTEEAEFHVDESTTVKVPMMTLSGMLDVHHCSTLSSWVLLMDYAGNATAVFLLPDDGKMQHLEQTLSKELISKFLLNRRRRLAQIHFPRLSISGEYNLKTLMSPLGITRIFNNGADLSGITEENAPLKLSQAVHKAVLTIDETGTEAAAVTVLLAVPYSMPPILRFDHPFLFIIFEEHTQSPLFVGKVVDPTH
Consider B2, for which the “inhibition of neutrophil elastase” value with neutrophil elastase is “do not”. For the same molecule, in the assay with pancreatic elastase, the “inhibition of pancreatic elastase” value is “do not”.

B3: AAT 1-4: murine α-1-antitrypsin protein corresponding to one of the Serpina1 genes (A-E) (protein, UniProt Q00897 25-413, looked up)
Alpha-1-antitrypsin 1-4: EDVQETDTSQKDQSPASHEIATNLGDFALRLYRELVHQSNTSNIFFSPVSIATAFAMLSLGSKGDTHTQILEGLQFNLTQTSEADIHKSFQHLLQTLNRPDSELQLSTGNGLFVNNDLKLVEKFLEEAKNHYQAEVFSVNFAESEEAKKVINDFVEKGTQGKIVEAVKKLDQDTVFALANYILFKGKWKQPFDPENTEEAEFHVDESTTVKVPMMTLSGMLDVHHCSMLSSWVLLMDYAGNTTAVFLLPDDGKMQHLEQTLNKELISQFLLNRRRSDAQIHIPRLSISGNYNLKTLMSPLGITRIFNNGADLSGITEENAPLKLSKAVHKAVLTIDETGTEAAAATVLQVATYSMPPIVRFDHPFLFIIFEEHTQSPIFVGKVVDPTHK
For B3, the “inhibition of neutrophil elastase” value in the assay with neutrophil elastase was “do not”. Moreover, the “inhibition of pancreatic elastase” value in the assay with pancreatic elastase is “do not”.

B4: AAT 1-2: murine α-1-antitrypsin protein corresponding to one of the Serpina1 genes (A-E) (protein, UniProt P22599 25-413, looked up)
Alpha-1-antitrypsin 1-2: EDVQETDTSQKDQSPASHEIATNLGDFAISLYRELVHQSNTSNIFFSPVSIATAFAMLSLGSKGDTHTQILEGLQFNLTQTSEADIHKSFQHLLQTLNRPDSELQLSTGNGLFVNNDLKLVEKFLEEAKNHYQAEVFSVNFAESEEAKKVINDFVEKGTQGKIVEAVKELDQDTVFALANYILFKGKWKKPFDPENTEEAEFHVDKSTTVKVPMMMLSGMLDVHHCSILSSWVLLMDYAGNASAVFLLPEDGKMQHLEQTLNKELISKILLNRRRRLVQIHIPRLSISGDYNLKTLMSPLGITRIFNNGADLSGITEENAPLKLSKAVHKAVLTIDETGTEAAAATVFEAVPMSMPPILRFDHPFLFIIFEEHTQSPIFVGKVVDPTHK
For B4, the “inhibition of neutrophil elastase” value with neutrophil elastase is reported as “inhibit”. Moreover, the “inhibition of pancreatic elastase” value in the assay with pancreatic elastase is listed as “inhibit”.
